Experimental findings from the supplement of paper PMC5998384 are described below.

The test system of data set [1] is HeLa Kyoto. The experiment in a line: solubility in G1/S (NP-40 vs SDS abundance) (log2 ratio); higher = more soluble. The following applies: cell cycle stage: G1/S.
Data set [2] concerns HeLa Kyoto. Kind of data set: thermal stability score vs G1/S (z-score of summed log2 fold changes over temperatures); higher = more thermally stable than in G1/S.
For data set [3], the system named is HeLa Kyoto. The experiment in a line: solubility change mitosis vs G1/S (difference of NP-40 vs SDS log2 ratios) (log2 ratio difference); higher = more soluble in mitosis.
The test system of data set [4] is HeLa Kyoto. The experiment in a line: melting temperature (median over replicates), in situ; higher = more thermally stable.
The mark [5] stands for this setting: cell cycle stage: early G1 (4.5 h after nocodazole release).
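Throughout, for melting temperature (median over replicates), in situ: HeLa Kyoto cells synchronized by double thymidine or nocodazole block, proteins quantified by TMT10plex mass spectrometry, three independent biological replicates.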
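Throughout, for solubility change mitosis vs G1/S (difference of NP-40 vs SDS log2 ratios): synchronized HeLa Kyoto cells (double thymidine block for G1/S, nocodazole release for mitosis), protein amounts in NP-40 versus SDS lysates quantified by mass spectrometry, three biological replicates.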
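Throughout, for solubility in G1/S (NP-40 vs SDS abundance): HeLa Kyoto cells arrested at G1/S by double thymidine block, proteins quantified by TMT10plex mass spectrometry in mild NP-40 versus SDS extracts, three biological replicates.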
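Throughout, for thermal stability score vs G1/S (z-score of summed log2 fold changes over temperatures): synchronized HeLa Kyoto cells, proteins quantified by TMT10plex mass spectrometry, three biological replicates, mitosis taken 0.5 h after nocodazole release, G1/S directly after double thymidine block.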

Consider “MATCAEILRSEFPEIDGQVFDYVTGVLHSGSADFESVDDLVEAVGELLQEVSGDSKDDAGIRAVCQRMYNTLRLAEPQSQGNSQVLLDAPIQLSKITENYDCGTKLPGLLKREQSSTVNAKKLEKAEARLKAKQEKRSEKDTLKTSNPLVLEEASASQAGSRKESRLESSGKNKSYDVRIENFDVSFGDRVLLAGADVNLAWGRRYGLVGRNGLGKTTLLKMLATRSLRVPAHISLLHVEQEVAGDDTPALQSVLESDSVREDLLRRERELTAQIAAGRAEGSEAAELAEIYAKLEEIEADKAPARASVILAGLGFTPKMQQQPTREFSGGWRMRLALARALFARPDLLLLDEPTNMLDVRAILWLENYLQTWPSTILVVSHDRNFLNAIATDIIHLHSQRLDGYRGDFETFIKSKQERLLNQQREYEAQQQYRQHIQVFIDRFRYNANRASQVQSKLKMLEKLPELKPVDKESEVVMKFPDGFEKFSPPILQLDEVDFYYDPKHVIFSRLSVSADLESRICVVGENGAGKSTMLKLLLGDLAPVRGIRHAHRNLKIGYFSQHHVEQLDLNVSAVELLARKFPGRPEEEYRHQLGRYGISGELAMRPLASLSGGQKSRVAFAQMTMPCPNFYILDEPTNHLDMETIEALGRALNNFRGGVILVSHDERFIRLVCRELWVCEGGGVTRVEGGFDQYRALLQEQFRREGFL [ABCF3]”, for which, in data set [1], the “solubility in G1/S (log2)” value worked out at 0.0738. For the same sequence, the thermal stability score is 1.82 in data set [2] (setting [5]) and 3.62 in data set [2] (cell cycle stage: mitosis). Besides, in data set [3], the “solubility change mitosis (log2)” value was -0.0928. In addition, the melting temperature in data set [4] (cell cycle stage: G1/S) and in data set [4] (cell cycle stage: mitosis) was 47.9 °C in each case.

Take “MATEGDVELELETETSGPERPPEKPRKHDSGAADLERVTDYAEEKEIQSSNLETAMSVIGDRRSREQKAKQEREKELAKVTIKKEDLELIMTEMEISRAAAERSLREHMGNVVEALIALTN [HYPK]”: the “solubility in G1/S (log2)” value in data set [1] stood at 0.395. In addition, the thermal stability score is -6.39 in data set [2] (setting [5]) and -8.21 in data set [2] (cell cycle stage: mitosis). Moreover, in data set [3], the “solubility change mitosis (log2)” value stood at 0.208. For the same sequence, the melting temperature in data set [4] (cell cycle stage: G1/S) turned out to be 54.4 °C; in data set [4] (cell cycle stage: mitosis), 54 °C.

Regarding “MATEGMILTNHDHQIRVGVLTVSDSCFRNLAEDRSGINLKDLVQDPSLLGGTISAYKIVPDEIEEIKETLIDWCDEKELNLILTTGGTGFAPRDVTPEATKEVIEREAPGMALAMLMGSLNVTPLGMLSRPVCGIRGKTLIINLPGSKKGSQECFQFILPALPHAIDLLRDAIVKVKEVHDELEDLPSPPPPLSPPPTTSPHKQTEDKGVQCEEEEEEKKDSGVASTEDSSSSHITAAAIAAKIPDSIISRGVQVLPRDTASLSTTPSESPRAQATSRLSTASCPTPKVQSRCSSKENILRASHSAVDITKVARRHRMSPFPLTSMDKAFITVLEMTPVLGTEIINYRDGMGRVLAQDVYAKDNLPPFPASVKDGYAVRAADGPGDRFIIGESQAGEQPTQTVMPGQVMRVTTGAPIPCGADAVVQVEDTELIRESDDGTEELEVRILVQARPGQDIRPIGHDIKRGECVLAKGTHMGPSEIGLLATVGVTEVEVNKFPVVAVMSTGNELLNPEDDLLPGKIRDSNRSTLLATIQEHGYPTINLGIVGDNPDDLLNALNEGISRADVIITSGGVSMGEKDYLKQVLDIDLHAQIHFGRVFMKPGLPTTFATLDIDGVRKIIFALPGNPVSAVVTCNLFVVPALRKMQGILDPRPTIIKARLSCDVKLDPRPEYHRCILTWHHQEPLPWAQSTGNQMSSRLMSMRSANGLLMLPPKTEQYVELHKGEVVDVMVIGRL [GPHN]”, in data set [1], the “solubility in G1/S (log2)” value was found to be 0.226. Moreover, the figures for the thermal stability score in data set [2] (setting [5]) and in data set [2] (cell cycle stage: mitosis) were -0.16 and -1.19, respectively. Also, in data set [3], the “solubility change mitosis (log2)” value was -0.057. Besides, the values for the melting temperature in data set [4] (cell cycle stage: G1/S) and in data set [4] (cell cycle stage: mitosis) were 55.6 °C and 54.6 °C, respectively.

With “MATESPATRRVQVAEHPRLLKLKEMFNSKFGSIPKFYVRAPGRVNIIGEHIDYCGYSVLPMAVEQDVLIAVEPVKTYALQLANTNPLYPDFSTSANNIQIDKTKPLWHNYFLCGLKGIQEHFGLSNLTGMNCLVDGNIPPSSGLSSSSALVCCAGLVTLTVLGRNLSKVELAEICAKSERYIGTEGGGMDQSISFLAEEGTAKLIEFSPLRATDVKLPSGAVFVIANSCVEMNKAATSHFNIRVMECRLAAKLLAKYKSLQWDKVLRLEEVQAKLGISLEEMLLVTEDALHPEPYNPEEICRCLGISLEELRTQILSPNTQDVLIFKLYQRAKHVYSEAARVLQFKKICEEAPENMVQLLGELMNQSHMSCRDMYECSCPELDQLVDICRKFGAQGSRLTGAGWGGCTVSMVPADKLPSFLANVHKAYYQRSDGSLAPEKQSLFATKPGGGALVLLEA [GALK2]”, the “solubility in G1/S (log2)” value in data set [1] was found to be 0.145. Further, the values for the thermal stability score in data set [2] (setting [5]) and in data set [2] (cell cycle stage: mitosis) were 0.289 and 0.99, respectively. Also, the “solubility change mitosis (log2)” value in data set [3] is -0.141. Besides, the melting temperature in data set [4] (cell cycle stage: G1/S) was determined as 54.5 °C; in data set [4] (cell cycle stage: mitosis), 54.2 °C.

For “MATGANATPLDFPSKKRKRSRWNQDTMEQKTVIPGMPTVIPPGLTREQERAYIVQLQIEDLTRKLRTGDLGIPPNPEDRSPSPEPIYNSEGKRLNTREFRTRKKLEEERHNLITEMVALNPDFKPPADYKPPATRVSDKVMIPQDEYPEINFVGLLIGPRGNTLKNIEKECNAKIMIRGKGSVKEGKVGRKDGQMLPGEDEPLHALVTANTMENVKKAVEQIRNILKQGIETPEDQNDLRKMQLRELARLNGTLREDDNRILRPWQSSETRSITNTTVCTKCGGAGHIASDCKFQRPGDPQSAQDKARMDKEYLSLMAELGEAPVPASVGSTSGPATTPLASAPRPAAPANNPPPPSLMSTTQSRPPWMNSGPSESRPYHGMHGGGPGGPGGGPHSFPHPLPSLTGGHGGHPMQHNPNGPPPPWMQPPPPPMNQGPHPPGHHGPPPMDQYLGSTPVGSGVYRLHQGKGMMPPPPMGMMPPPPPPPSGQPPPPPSGPLPPWQQQQQQPPPPPPPSSSMASSTPLPWQQNTTTTTTSAGTGSIPPWQQQQAAAAASPGAPQMQGNPTMVPLPPGVQPPLPPGAPPPPPPPPPGSAGMMYAPPPPPPPPMDPSNFVTMMGMGVAGMPPFGMPPAPPPPPPQN [SF1]”, the “solubility in G1/S (log2)” value in data set [1] is 0.255. For the same sequence, the thermal stability score was -4.58 in data set [2] (setting [5]) and -1.85 in data set [2] (cell cycle stage: mitosis). In addition, in data set [3], the “solubility change mitosis (log2)” value worked out at 0.135. The melting temperature in data set [4] (cell cycle stage: G1/S) was 53.4 °C.
